Data from US20040120954A1, “Regulation of mt1-mmp activity” (priority 2000, published 2004).

Tests used:
[1] = biological target: MT1-F/NGFR (chimera of the ectodomain of MT1-F with the transmembrane/cytoplasmic domain of NGFR) (human) (UniProt P50281); assay: COS1 cells co-transfected with MT1-F/NGFR, Rac1DA and MT1PEX-F, PY20 Western blot (FIG. 24)
[2] = biological target: MT1-F/NGFR (chimera of the ectodomain of MT1-F with the transmembrane/cytoplasmic domain of NGFR) (human) (UniProt P50281); assay: competition with the dimer formation of MT1-F/NGFR in co-transfected COS1 cells, PY20 Western blot (FIG. 10)
[3] = biological target: Membrane-type 1 matrix metalloproteinase (MT1-MMP) (human) (UniProt P50281)
[4] = biological target: FLAG epitope-tagged MT1-MMP (MT1-F) (human) (UniProt P50281); assay: binding of 25 nM 125I-labeled TIMP-2 to transfected CHO-K1 cells at 0 C, with and without BB-94

## Catalytic domain-deleted FLAG-tagged MT1-MMP (MT1PEX-F) (from UniProt P50281)
[1]
  decrease of the phosphotyrosine signal of MT1-F/NGFR: 43%
[2]
  inhibition of the phosphorylation of MT1-F/NGFR: > 90%
[3]
  Matrigel invasion by HT1080 cells (GFP-positive invading cells): 70%

## Recombinant human TIMP-2 (tissue inhibitor of metalloproteinase-2) (from UniProt P16035)
[4]
  decrease in TIMP-2 binding on the cell surface on co-transfection of MT1PEX-F, against MT1-F alone: 37%
